T1: TAF4 (human (endogenous in HeLa), UniProt O00268 1-1085)
T1 sequence (looked up): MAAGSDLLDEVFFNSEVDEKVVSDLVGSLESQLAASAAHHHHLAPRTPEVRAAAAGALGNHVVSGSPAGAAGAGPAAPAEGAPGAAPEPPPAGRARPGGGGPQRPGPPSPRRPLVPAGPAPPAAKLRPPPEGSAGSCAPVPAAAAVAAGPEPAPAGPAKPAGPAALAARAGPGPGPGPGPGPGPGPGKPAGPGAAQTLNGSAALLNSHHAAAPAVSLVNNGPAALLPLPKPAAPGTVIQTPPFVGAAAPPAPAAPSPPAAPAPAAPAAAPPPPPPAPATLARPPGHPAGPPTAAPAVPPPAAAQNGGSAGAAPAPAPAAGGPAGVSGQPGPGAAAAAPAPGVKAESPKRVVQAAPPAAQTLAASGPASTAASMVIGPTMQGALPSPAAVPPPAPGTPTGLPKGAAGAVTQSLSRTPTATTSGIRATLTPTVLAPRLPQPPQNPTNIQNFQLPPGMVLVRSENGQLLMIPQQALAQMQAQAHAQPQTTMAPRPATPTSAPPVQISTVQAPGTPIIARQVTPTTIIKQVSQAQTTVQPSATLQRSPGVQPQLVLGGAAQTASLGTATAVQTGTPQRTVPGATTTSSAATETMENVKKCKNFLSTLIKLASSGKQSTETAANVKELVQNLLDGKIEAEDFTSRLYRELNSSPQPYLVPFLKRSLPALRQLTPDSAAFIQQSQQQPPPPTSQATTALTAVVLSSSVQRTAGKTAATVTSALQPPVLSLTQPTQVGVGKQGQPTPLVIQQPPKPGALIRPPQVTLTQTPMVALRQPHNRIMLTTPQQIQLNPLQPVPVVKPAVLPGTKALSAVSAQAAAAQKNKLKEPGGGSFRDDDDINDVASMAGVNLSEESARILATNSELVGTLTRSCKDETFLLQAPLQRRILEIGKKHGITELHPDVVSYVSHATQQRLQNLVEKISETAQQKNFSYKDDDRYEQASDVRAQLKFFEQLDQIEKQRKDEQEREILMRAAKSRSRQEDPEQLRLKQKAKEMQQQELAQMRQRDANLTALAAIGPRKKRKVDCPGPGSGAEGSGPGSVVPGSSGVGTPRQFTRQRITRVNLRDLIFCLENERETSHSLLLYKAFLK

T2: TAF2 (human (endogenous in HeLa), UniProt Q6P1X5 1-1199)
T2 sequence (looked up): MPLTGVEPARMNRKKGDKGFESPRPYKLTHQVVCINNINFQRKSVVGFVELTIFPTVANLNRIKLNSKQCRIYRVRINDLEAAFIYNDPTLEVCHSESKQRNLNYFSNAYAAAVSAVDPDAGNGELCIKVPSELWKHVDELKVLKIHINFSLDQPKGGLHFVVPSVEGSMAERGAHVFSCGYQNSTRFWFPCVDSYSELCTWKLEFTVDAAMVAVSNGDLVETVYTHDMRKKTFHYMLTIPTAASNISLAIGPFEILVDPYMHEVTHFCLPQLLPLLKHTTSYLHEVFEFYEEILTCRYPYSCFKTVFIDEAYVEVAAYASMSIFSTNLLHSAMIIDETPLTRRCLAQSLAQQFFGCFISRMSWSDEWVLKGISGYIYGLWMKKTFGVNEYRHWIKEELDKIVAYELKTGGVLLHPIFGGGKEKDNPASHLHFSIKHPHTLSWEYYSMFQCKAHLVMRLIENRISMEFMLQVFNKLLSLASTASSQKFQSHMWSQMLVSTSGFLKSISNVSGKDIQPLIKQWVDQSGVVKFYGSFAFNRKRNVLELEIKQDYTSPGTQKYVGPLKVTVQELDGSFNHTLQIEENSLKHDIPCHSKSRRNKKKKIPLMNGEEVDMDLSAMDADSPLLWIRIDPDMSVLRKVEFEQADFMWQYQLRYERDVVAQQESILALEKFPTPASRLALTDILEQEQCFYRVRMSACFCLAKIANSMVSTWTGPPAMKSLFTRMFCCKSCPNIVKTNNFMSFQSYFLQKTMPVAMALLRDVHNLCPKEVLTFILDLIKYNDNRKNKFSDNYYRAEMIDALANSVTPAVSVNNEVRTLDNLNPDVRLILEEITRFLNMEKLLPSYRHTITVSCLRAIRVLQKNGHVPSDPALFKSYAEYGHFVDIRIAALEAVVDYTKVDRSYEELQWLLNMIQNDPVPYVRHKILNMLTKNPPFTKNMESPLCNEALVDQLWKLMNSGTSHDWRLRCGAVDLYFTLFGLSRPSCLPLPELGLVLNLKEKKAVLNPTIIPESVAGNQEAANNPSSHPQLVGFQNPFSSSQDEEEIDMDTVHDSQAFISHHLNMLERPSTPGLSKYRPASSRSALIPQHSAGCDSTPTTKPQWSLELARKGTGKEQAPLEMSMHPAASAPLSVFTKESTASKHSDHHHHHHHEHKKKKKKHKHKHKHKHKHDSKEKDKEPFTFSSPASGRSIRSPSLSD

B1: TAF5 (natural protein, human (endogenous in HeLa), UniProt Q15542 1-800, looked up)
chain: MAALAEEQTEVAVKLEPEGPPTLLPPQAGDGAGEGSGGTTNNGPNGGGGNVAASSSTGGDGGTPKPTVAVSAAAPAGAAPVPAAAPDAGAPHDRQTLLAVLQFLRQSKLREAEEALRREAGLLEEAVAGSGAPGEVDSAGAEVTSALLSRVTASAPGPAAPDPPGTGASGATVVSGSASGPAAPGKVGSVAVEDQPDVSAVLSAYNQQGDPTMYEEYYSGLKHFIECSLDCHRAELSQLFYPLFVHMYLELVYNQHENEAKSFFEKFHGDQECYYQDDLRVLSSLTKKEHMKGNETMLDFRTSKFVLRISRDSYQLLKRHLQEKQNNQIWNIVQEHLYIDIFDGMPRSKQQIDAMVGSLAGEAKREANKSKVFFGLLKEPEIEVPLDDEDEEGENEEGKPKKKKPKKDSIGSKSKKQDPNAPPQNRIPLPELKDSDKLDKIMNMKETTKRVRLGPDCLPSICFYTFLNAYQGLTAVDVTDDSSLIAGGFADSTVRVWSVTPKKLRSVKQASDLSLIDKESDDVLERIMDEKTASELKILYGHSGPVYGASFSPDRNYLLSSSEDGTVRLWSLQTFTCLVGYKGHNYPVWDTQFSPYGYYFVSGGHDRVARLWATDHYQPLRIFAGHLADVNCTRFHPNSNYVATGSADRTVRLWDVLNGNCVRIFTGHKGPIHSLTFSPNGRFLATGATDGRVLLWDIGHGLMVGELKGHTDTVCSLRFSRDGEILASGSMDNTVRLWDAIKAFEDLETDDFTTATGHINLPENSQELLLGTYMTKSTPVVHLHFTRRNLVLAAGAYSPQ
B2: TAF6 (natural protein)
chain: not shown

Assays:
Assay in all cases: cryo-EM structure
TAF4 = target: T1, TAF4
TAF5 = target: B1
TAF6 = target: B2
cryo-EM structure = target: the molecule itself
TAF2 = target: T2, TAF2

Chain of TAF6 (P49848 whole entry): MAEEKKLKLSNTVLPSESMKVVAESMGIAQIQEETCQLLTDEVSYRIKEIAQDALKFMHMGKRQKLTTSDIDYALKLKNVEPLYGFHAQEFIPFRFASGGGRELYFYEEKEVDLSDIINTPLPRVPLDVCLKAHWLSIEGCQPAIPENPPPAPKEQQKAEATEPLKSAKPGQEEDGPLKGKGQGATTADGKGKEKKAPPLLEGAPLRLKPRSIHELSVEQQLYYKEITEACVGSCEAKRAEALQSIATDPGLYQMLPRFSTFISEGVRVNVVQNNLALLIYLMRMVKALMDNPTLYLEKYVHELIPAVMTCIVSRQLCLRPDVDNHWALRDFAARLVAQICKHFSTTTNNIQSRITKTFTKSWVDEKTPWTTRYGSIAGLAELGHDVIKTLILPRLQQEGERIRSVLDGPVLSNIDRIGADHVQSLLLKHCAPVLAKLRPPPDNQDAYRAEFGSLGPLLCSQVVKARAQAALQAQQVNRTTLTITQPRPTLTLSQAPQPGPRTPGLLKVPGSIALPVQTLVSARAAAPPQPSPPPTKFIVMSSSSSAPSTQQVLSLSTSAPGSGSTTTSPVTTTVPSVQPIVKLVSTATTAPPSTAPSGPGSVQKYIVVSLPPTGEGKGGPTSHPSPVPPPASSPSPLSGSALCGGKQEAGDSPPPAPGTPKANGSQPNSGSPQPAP

binding result (TAF4) | binding result (TAF5) | binding result (TAF6) | Binder | further results
binds |  |  | TAF12 (natural protein, human (endogenous in HeLa), UniProt Q16514 1-161, looked up) MNQFGPSALINLSNFSSIKPEPASTPPQGSMANSTAVVKIPGTPGAGGRLSPENNQVLTKKKLQDLVREVDPNEQLDEDVEEMLLQIADDFIESVVTAACQLARHRKSSTLEVKDVQLHLERQWNMWIPGFGSEEIRPYKKACTTEAHKQRMALIRKTTKK | 
 | binds | binds | TAF9 (natural protein, human (endogenous in HeLa), UniProt Q16594 1-264, looked up) MESGKTASPKSMPKDAQMMAQILKDMGITEYEPRVINQMLEFAFRYVTTILDDAKIYSSHAKKATVDADDVRLAIQCRADQSFTSPPPRDFLLDIARQRNQTPLPLIKPYSGPRLPPDRYCLTAPNYRLKSLQKKASTSAGRITVPRLSVGSVTSRPSTPTLGTPTPQTMSVSTKVGTPMSLTGQRFTVQMPTSQSPAVKASIPATSAVQNVLINPSLIGSKNILITTNMMSSQNTANESSNALKRKREDDDDDDDDDDDYDNL | 
binds |  |  | B1 | 
 |  |  | B2 | stoichiometry N (cryo-EM structure): 2
 | binds | binds | TAF8 (natural protein, human (endogenous in HeLa), UniProt Q7Z7C8 1-310, looked up) MADAAATAGAGGSGTRSGSKQSTNPADNYHLARRRTLQVVVSSLLTEAGFESAEKASVETLTEMLQSYISEIGRSAKSYCEHTARTQPTLSDIVVTLVEMGFNVDTLPAYAKRSQRMVITAPPVTNQPVTPKALTAGQNRPHPPHIPSHFPEFPDPHTYIKTPTYREPVSDYQVLREKAASQRRDVERALTRFMAKTGETQSLFKDDVSTFPLIAARPFTIPYLTALLPSELEMQQMEETDSSEQDEQTDTENLALHISMEDSGAEKENTSVLQQNPSLSGSRNGEENIIDNPYLRPVKKPKIRRKKSLS | binding result (TAF2): binds

— paper PMC6446905 (Science (New York, N.Y.), 2018)
